# B1: WD-40 repeat-containing protein MSI4 (Arabidopsis thaliana (Mouse-ear cress)), O22607 (parent)
# chain: MESDEAAAVSPQATTPSGGTGASGPKKRGRKPKTKEDSQTPSSQQQSDVKMKESGKKTQQSPSVDEKYSQWKGLVPILYDWLANHNLVWPSLSCRWGPQLEQATYKNRQRLYLSEQTDGSVPNTLVIANCEVVKPRVAAAEHISQFNEEARSPFVKKYKTIIHPGEVNRIRELPQNSKIVATHTDSPDVLIWDVETQPNRHAVLGAANSRPDLILTGHQDNAEFALAMCPTEPFVLSGGKDKSVVLWSIQDHITTIGTDSKSSGSIIKQTGEGTDKNESPTVGPRGVYHGHEDTVEDVAFSPTSAQEFCSVGDDSCLILWDARTGTNPVTKVEKAHDADLHCVDWNPHDDNLILTGSADNTVRLFDRRKLTANGVGSPIYKFEGHKAAVLCVQWSPDKSSVFGSSAEDGLLNIWDYDRVSKKSDRAAKSPAGLFFQHAGHRDKVVDFHWNASDPWTIVSVSDDCETTGGGGTLQIWRMSDLIYRPEEEVVAELEKFKSHVMTCASKP
# partner: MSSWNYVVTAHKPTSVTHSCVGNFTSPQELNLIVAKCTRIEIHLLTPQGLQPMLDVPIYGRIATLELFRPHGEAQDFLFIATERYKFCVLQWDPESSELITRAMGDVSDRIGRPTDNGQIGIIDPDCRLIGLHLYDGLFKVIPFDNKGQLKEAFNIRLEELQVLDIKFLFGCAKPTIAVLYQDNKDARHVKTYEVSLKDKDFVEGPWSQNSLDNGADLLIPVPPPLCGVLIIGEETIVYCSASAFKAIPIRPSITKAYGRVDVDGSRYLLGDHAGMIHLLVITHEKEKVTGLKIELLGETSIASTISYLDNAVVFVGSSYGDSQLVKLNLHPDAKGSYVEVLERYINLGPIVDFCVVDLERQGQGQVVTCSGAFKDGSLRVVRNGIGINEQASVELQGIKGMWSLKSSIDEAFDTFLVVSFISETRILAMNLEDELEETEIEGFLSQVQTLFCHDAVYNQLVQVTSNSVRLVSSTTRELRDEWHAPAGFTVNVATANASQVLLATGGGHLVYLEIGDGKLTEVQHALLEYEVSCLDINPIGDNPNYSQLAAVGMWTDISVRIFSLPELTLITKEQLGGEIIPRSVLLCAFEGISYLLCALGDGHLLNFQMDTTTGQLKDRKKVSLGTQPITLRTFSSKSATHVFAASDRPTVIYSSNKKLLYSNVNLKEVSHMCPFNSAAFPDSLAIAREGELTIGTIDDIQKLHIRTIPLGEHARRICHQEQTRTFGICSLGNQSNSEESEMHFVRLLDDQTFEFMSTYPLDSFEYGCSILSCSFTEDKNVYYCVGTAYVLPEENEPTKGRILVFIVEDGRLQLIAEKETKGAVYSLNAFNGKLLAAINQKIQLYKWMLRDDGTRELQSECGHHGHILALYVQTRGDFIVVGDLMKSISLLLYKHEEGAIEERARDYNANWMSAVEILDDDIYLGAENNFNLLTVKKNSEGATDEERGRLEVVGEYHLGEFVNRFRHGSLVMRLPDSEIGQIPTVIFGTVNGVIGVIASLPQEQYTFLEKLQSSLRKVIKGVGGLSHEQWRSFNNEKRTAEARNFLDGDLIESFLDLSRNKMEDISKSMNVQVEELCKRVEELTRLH
# B2: WD-40 repeat-containing protein MSI4 (Arabidopsis thaliana (Mouse-ear cress)), O22607 (parent)
# chain: B1 chain
# partner: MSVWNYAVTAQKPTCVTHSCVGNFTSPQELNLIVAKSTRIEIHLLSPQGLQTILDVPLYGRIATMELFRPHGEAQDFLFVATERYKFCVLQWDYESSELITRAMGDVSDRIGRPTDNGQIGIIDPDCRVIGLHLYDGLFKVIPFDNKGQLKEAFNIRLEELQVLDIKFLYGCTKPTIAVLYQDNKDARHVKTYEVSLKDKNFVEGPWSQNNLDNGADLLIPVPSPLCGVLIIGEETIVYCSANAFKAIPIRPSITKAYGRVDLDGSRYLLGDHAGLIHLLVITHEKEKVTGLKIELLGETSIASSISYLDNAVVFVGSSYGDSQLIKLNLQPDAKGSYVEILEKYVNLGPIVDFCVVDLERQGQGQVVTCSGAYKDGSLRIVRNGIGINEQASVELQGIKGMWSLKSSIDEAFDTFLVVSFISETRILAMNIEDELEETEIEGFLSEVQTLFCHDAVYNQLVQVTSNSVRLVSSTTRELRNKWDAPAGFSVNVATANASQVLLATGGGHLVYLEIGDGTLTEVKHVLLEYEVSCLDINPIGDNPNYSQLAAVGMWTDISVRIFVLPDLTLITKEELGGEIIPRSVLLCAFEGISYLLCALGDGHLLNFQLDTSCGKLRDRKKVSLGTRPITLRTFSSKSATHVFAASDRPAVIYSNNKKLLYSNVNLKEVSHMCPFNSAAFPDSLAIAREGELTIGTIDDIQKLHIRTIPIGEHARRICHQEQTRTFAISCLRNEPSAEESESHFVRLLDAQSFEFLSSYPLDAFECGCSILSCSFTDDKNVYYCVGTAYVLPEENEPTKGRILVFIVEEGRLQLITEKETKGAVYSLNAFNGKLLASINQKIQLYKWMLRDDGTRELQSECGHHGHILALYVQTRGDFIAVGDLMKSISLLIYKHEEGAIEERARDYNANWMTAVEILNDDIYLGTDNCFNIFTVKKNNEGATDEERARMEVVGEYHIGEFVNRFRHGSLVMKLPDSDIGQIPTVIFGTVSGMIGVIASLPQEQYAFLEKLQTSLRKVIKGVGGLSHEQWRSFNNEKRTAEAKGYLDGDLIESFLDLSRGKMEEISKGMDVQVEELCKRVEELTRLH
# Variants of: B1
# Settings: with ddb1a_arath DDB1A
row,Variant,effect of a mutation on the interaction
1,MESDEAAAVSPQATTPSGGTGASGPKKRGRKPKTKEDSQTPSSQQQSDVKMKESGKKTQQSPSVDEKYSQWKGLVPILYDWLANHNLVWPSLSCRWGPQLEQATYKNRQRLYLSEQTDGSVPNTLVIANCEVVKPRVAAAEHISQFNEEARSPFVKKYKTIIHPGEVNRIRELPQNSKIVATHTDSPDVLIWDVETQPNRHAVLGAANSRPDLILTGHQDNAEFALAMCPTEPFVLSGGKDKSVVLWSIQDHITTIGTDSKSSGSIIKQTGEGTDKNESPTVGPRGVYHGHEDTVEDVAFSPTSAQEFCSVGDDSCLILWDAHTGTNPVTKVEKAHDADLHCVDWNPHDDNLILTGSADNTVRLFDRRKLTANGVGSPIYKFEGHKAAVLCVQWSPDKSSVFGSSAEDGLLNIWDYDRVSKKSDRAAKSPAGLFFQHAGHRDKVVDFHWNASDPWTIVSVSDDCETTGGGGTLQIWRMSDLIYRPEEEVVAELEKFKSHVMTCASKP [R323H],decreasing interaction strength

# Variants of: B2
# Settings: with ddb1b_arath DDB1B
row,Variant,effect of a mutation on the interaction
1,MESDEAAAVSPQATTPSGGTGASGPKKRGRKPKTKEDSQTPSSQQQSDVKMKESGKKTQQSPSVDEKYSQWKGLVPILYDWLANHNLVWPSLSCRWGPQLEQATYKNRQRLYLSEQTDGSVPNTLVIANCEVVKPRVAAAEHISQFNEEARSPFVKKYKTIIHPGEVNRIRELPQNSKIVATHTDSPDVLIWDVETQPNRHAVLGAANSRPDLILTGHQDNAEFALAMCPTEPFVLSGGKDKSVVLWSIQDHITTIGTDSKSSGSIIKQTGEGTDKNESPTVGPRGVYHGHEDTVEDVAFSPTSAQEFCSVGDDSCLILWDAHTGTNPVTKVEKAHDADLHCVDWNPHDDNLILTGSADNTVRLFDRRKLTANGVGSPIYKFEGHKAAVLCVQWSPDKSSVFGSSAEDGLLNIWDYDRVSKKSDRAAKSPAGLFFQHAGHRDKVVDFHWNASDPWTIVSVSDDCETTGGGGTLQIWRMSDLIYRPEEEVVAELEKFKSHVMTCASKP [R323H],decreasing interaction strength

# From IntAct's records for PubMed 21282611
